Here are results for eight molecules from patent publication US20110166062A1 (INDIANA UNIVERSITY RESEARCH AND TECHNOLOGY, published 2011).

Common to all, as to test: cell-based or functional assay
For experiment [1], the target named is glucagon receptor (UniProt P47871 26-477, limits assumed).
Target sequence in this assay (P47871 26-477 limits assumed): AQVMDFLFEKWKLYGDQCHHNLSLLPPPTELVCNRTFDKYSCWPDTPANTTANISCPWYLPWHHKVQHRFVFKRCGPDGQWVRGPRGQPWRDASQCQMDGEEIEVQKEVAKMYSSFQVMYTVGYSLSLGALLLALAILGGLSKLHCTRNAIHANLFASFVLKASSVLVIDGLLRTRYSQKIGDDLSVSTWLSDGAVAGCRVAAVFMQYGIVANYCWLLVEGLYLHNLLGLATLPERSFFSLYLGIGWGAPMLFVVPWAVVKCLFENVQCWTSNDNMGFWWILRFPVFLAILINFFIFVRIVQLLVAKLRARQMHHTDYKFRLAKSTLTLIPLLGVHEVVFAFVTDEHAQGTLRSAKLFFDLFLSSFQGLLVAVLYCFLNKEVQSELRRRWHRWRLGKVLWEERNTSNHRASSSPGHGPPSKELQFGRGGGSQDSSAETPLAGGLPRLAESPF
The target of experiment [2] is T1, GIP receptor (UniProt P48546 22-466).
T1 sequence (looked up): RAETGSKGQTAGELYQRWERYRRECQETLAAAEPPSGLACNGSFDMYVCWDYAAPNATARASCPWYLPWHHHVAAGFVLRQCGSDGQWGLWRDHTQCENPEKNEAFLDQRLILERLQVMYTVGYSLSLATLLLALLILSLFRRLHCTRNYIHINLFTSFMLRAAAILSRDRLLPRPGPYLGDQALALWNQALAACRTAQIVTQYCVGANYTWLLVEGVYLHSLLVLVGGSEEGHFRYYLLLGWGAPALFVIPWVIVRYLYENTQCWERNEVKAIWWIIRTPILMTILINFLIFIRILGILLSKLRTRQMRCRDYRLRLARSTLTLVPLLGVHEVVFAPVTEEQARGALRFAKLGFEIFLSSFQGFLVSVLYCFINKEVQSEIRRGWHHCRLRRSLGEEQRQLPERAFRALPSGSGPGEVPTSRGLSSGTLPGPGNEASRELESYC

Experiment [3] addresses glucagon receptor (UniProt P47871 26-477, limits assumed). The source holds these as a separate data set.
Target sequence in this assay (P47871 26-477 limits assumed): as the sequence (P47871 26-477 limits assumed) above
For the next experiment, the target named is GLP-1 receptor (UniProt P43220 24-463, limits assumed).
Experiment [4] concerns the target T2, GIP receptor (UniProt P48546 22-466).
T2 sequence (looked up): T1 sequence (looked up)
This is another data set of the same source.

Like-named read-outs stand apart in the source and are kept apart here. Bridges are numbered along the chain shown (N, C = ends). Where no end group is shown, it is not given here. [ ]: non-standard residue; d: D form. The star is where a group is joined. Stearoyl = CCCCCCCCCCCCCCCCCC(=O)*; Palmitoyl = CCCCCCCCCCCCCCCC(=O)*; Myristoyl = CCCCCCCCCCCCCC(=O)*; Octanoyl = CCCCCCCC(=O)*; Aib = CC(C)(N)C(=O)O

B1: mt-256 (peptide)
peptide: Y[Aib]EGTFTSDYSIYLDKQAA[Aib]EFVNWLLAGGPSSGAPPPSC-NH2
The term EC50 denotes the concentration that produces a half-maximal response. Higher therefore signals a less potent agent. On to B1, for which, in the experiment with glucagon receptor [1], the “EC50” value is 58.9 nM.

B2: mt-285 (peptide)
peptide: Y[Aib]EGTFTSDKSIYLDKQAA[Aib]EFVNWLLAG-NH2
modifications: N-terminus assumed
SMILES: CC[C@H](C)[C@H](NC(=O)[C@H](CO)NC(=O)[C@H](CCCCN)NC(=O)[C@H](CC(=O)O)NC(=O)[C@H](CO)NC(=O)[C@@H](NC(=O)[C@H](Cc1ccccc1)NC(=O)[C@@H](NC(=O)CNC(=O)[C@H](CCC(=O)O)NC(=O)C(C)(C)NC(=O)[C@@H](N)Cc1ccc(O)cc1)[C@@H](C)O)[C@@H](C)O)C(=O)N[C@@H](Cc1ccc(O)cc1)C(=O)N[C@@H](CC(C)C)C(=O)N[C@@H](CC(=O)O)C(=O)N[C@@H](CCCCN)C(=O)N[C@@H](CCC(N)=O)C(=O)N[C@@H](C)C(=O)N[C@@H](C)C(=O)NC(C)(C)C(=O)N[C@@H](CCC(=O)O)C(=O)N[C@@H](Cc1ccccc1)C(=O)N[C@H](C(=O)N[C@@H](CC(N)=O)C(=O)N[C@@H](Cc1c[nH]c2ccccc12)C(=O)N[C@@H](CC(C)C)C(=O)N[C@@H](CC(C)C)C(=O)N[C@@H](C)C(=O)NCC(N)=O)C(C)C
Consider B2, for which a half-maximal response in the experiment with GIP receptor [2] (EC50) required 0.028 nM.

B3: mt-323 (peptide)
peptide: Y[Aib]QGTFTSDYSIYLDKQAA[Aib]EFVNWLLAGGPSSGAPPPSK(Octanoyl)-NH2
modifications: N-terminus assumed
SMILES: CCCCCCCC(=O)NCCCC[C@H](NC(=O)[C@H](CO)NC(=O)[C@@H]1CCCN1C(=O)[C@@H]1CCCN1C(=O)[C@@H]1CCCN1C(=O)[C@H](C)NC(=O)CNC(=O)[C@H](CO)NC(=O)[C@H](CO)NC(=O)[C@@H]1CCCN1C(=O)CNC(=O)CNC(=O)[C@H](C)NC(=O)[C@H](CC(C)C)NC(=O)[C@H](CC(C)C)NC(=O)[C@H](Cc1c[nH]c2ccccc12)NC(=O)[C@H](CC(N)=O)NC(=O)[C@@H](NC(=O)[C@H](Cc1ccccc1)NC(=O)[C@H](CCC(=O)O)NC(=O)C(C)(C)NC(=O)[C@H](C)NC(=O)[C@H](C)NC(=O)[C@H](CCC(N)=O)NC(=O)[C@H](CCCCN)NC(=O)[C@H](CC(=O)O)NC(=O)[C@H](CC(C)C)NC(=O)[C@H](Cc1ccc(O)cc1)NC(=O)[C@@H](NC(=O)[C@H](CO)NC(=O)[C@H](Cc1ccc(O)cc1)NC(=O)[C@H](CC(=O)O)NC(=O)[C@H](CO)NC(=O)[C@@H](NC(=O)[C@H](Cc1ccccc1)NC(=O)[C@@H](NC(=O)CNC(=O)[C@H](CCC(N)=O)NC(=O)C(C)(C)NC(=O)[C@@H](N)Cc1ccc(O)cc1)[C@@H](C)O)[C@@H](C)O)[C@@H](C)CC)C(C)C)C(N)=O
For the molecule B3, in the experiment with GIP receptor [2], the “EC50” value was 0.0084 nM.

B4: mt-280 (peptide)
peptide: Y[Aib]QGTFTSDYSIYLDKQAA[Aib]EFVNWLLAGGPSSGAPPPSK-NH2
modifications: N-terminus assumed
SMILES: CC[C@H](C)[C@H](NC(=O)[C@H](CO)NC(=O)[C@H](Cc1ccc(O)cc1)NC(=O)[C@H](CC(=O)O)NC(=O)[C@H](CO)NC(=O)[C@@H](NC(=O)[C@H](Cc1ccccc1)NC(=O)[C@@H](NC(=O)CNC(=O)[C@H](CCC(N)=O)NC(=O)C(C)(C)NC(=O)[C@@H](N)Cc1ccc(O)cc1)[C@@H](C)O)[C@@H](C)O)C(=O)N[C@@H](Cc1ccc(O)cc1)C(=O)N[C@@H](CC(C)C)C(=O)N[C@@H](CC(=O)O)C(=O)N[C@@H](CCCCN)C(=O)N[C@@H](CCC(N)=O)C(=O)N[C@@H](C)C(=O)N[C@@H](C)C(=O)NC(C)(C)C(=O)N[C@@H](CCC(=O)O)C(=O)N[C@@H](Cc1ccccc1)C(=O)N[C@H](C(=O)N[C@@H](CC(N)=O)C(=O)N[C@@H](Cc1c[nH]c2ccccc12)C(=O)N[C@@H](CC(C)C)C(=O)N[C@@H](CC(C)C)C(=O)N[C@@H](C)C(=O)NCC(=O)NCC(=O)N1CCC[C@H]1C(=O)N[C@@H](CO)C(=O)N[C@@H](CO)C(=O)NCC(=O)N[C@@H](C)C(=O)N1CCC[C@H]1C(=O)N1CCC[C@H]1C(=O)N1CCC[C@H]1C(=O)N[C@@H](CO)C(=O)N[C@@H](CCCCN)C(N)=O)C(C)C
B4: the midpoint of the response with GIP receptor [2], the EC50, lay at 0.0149 nM.

B5: mt-283 (peptide)
peptide: Y[Aib]EGTFTSDK(Palmitoyl)SIYLDKQAA[Aib]EFVNWLLAG-NH2
modifications: N-terminus assumed
SMILES: CCCCCCCCCCCCCCCC(=O)NCCCC[C@H](NC(=O)[C@H](CC(=O)O)NC(=O)[C@H](CO)NC(=O)[C@@H](NC(=O)[C@H](Cc1ccccc1)NC(=O)[C@@H](NC(=O)CNC(=O)[C@H](CCC(=O)O)NC(=O)C(C)(C)NC(=O)[C@@H](N)Cc1ccc(O)cc1)[C@@H](C)O)[C@@H](C)O)C(=O)N[C@@H](CO)C(=O)N[C@H](C(=O)N[C@@H](Cc1ccc(O)cc1)C(=O)N[C@@H](CC(C)C)C(=O)N[C@@H](CC(=O)O)C(=O)N[C@@H](CCCCN)C(=O)N[C@@H](CCC(N)=O)C(=O)N[C@@H](C)C(=O)N[C@@H](C)C(=O)NC(C)(C)C(=O)N[C@@H](CCC(=O)O)C(=O)N[C@@H](Cc1ccccc1)C(=O)N[C@H](C(=O)N[C@@H](CC(N)=O)C(=O)N[C@@H](Cc1c[nH]c2ccccc12)C(=O)N[C@@H](CC(C)C)C(=O)N[C@@H](CC(C)C)C(=O)N[C@@H](C)C(=O)NCC(N)=O)C(C)C)[C@@H](C)CC
As for B5, the “EC50” value in the experiment with GIP receptor [2] was determined as 0.0122 nM.

B6: mt-169 (peptide)
peptide: Y[Aib]QGTFTSDYSIYLDEQAAKEFVCWLLAG-NH2
modifications: lactam 16-20; N-terminus assumed
SMILES: CC[C@H](C)[C@H](NC(=O)[C@H](CO)NC(=O)[C@H](Cc1ccc(O)cc1)NC(=O)[C@H](CC(=O)O)NC(=O)[C@H](CO)NC(=O)[C@@H](NC(=O)[C@H](Cc1ccccc1)NC(=O)[C@@H](NC(=O)CNC(=O)[C@H](CCC(N)=O)NC(=O)C(C)(C)NC(=O)[C@@H](N)Cc1ccc(O)cc1)[C@@H](C)O)[C@@H](C)O)C(=O)N[C@@H](Cc1ccc(O)cc1)C(=O)N[C@@H](CC(C)C)C(=O)N[C@@H](CC(=O)O)C(=O)N[C@H]1CCC(=O)NCCCC[C@@H](C(=O)N[C@@H](CCC(=O)O)C(=O)N[C@@H](Cc2ccccc2)C(=O)N[C@H](C(=O)N[C@@H](CS)C(=O)N[C@@H](Cc2c[nH]c3ccccc23)C(=O)N[C@@H](CC(C)C)C(=O)N[C@@H](CC(C)C)C(=O)N[C@@H](C)C(=O)NCC(N)=O)C(C)C)NC(=O)[C@H](C)NC(=O)[C@H](C)NC(=O)[C@H](CCC(N)=O)NC1=O
On to B6, for which the “EC50” value in the experiment with glucagon receptor [3] was determined as 0.199 nM; in the experiment with GLP-1 receptor it was 0.057 nM; with GIP receptor [4], 0.142 nM. Also, the relative activity in the experiment with glucagon receptor [3] was 51.3%; with GLP-1 receptor, 54.4%; in the experiment with GIP receptor [4], 14.8%.

B7: mt-282 (peptide)
peptide: Y[Aib]EGTFTSDK(Myristoyl)SIYLDKQAA[Aib]EFVNWLLAG-NH2
modifications: N-terminus assumed
SMILES: CCCCCCCCCCCCCC(=O)NCCCC[C@H](NC(=O)[C@H](CC(=O)O)NC(=O)[C@H](CO)NC(=O)[C@@H](NC(=O)[C@H](Cc1ccccc1)NC(=O)[C@@H](NC(=O)CNC(=O)[C@H](CCC(=O)O)NC(=O)C(C)(C)NC(=O)[C@@H](N)Cc1ccc(O)cc1)[C@@H](C)O)[C@@H](C)O)C(=O)N[C@@H](CO)C(=O)N[C@H](C(=O)N[C@@H](Cc1ccc(O)cc1)C(=O)N[C@@H](CC(C)C)C(=O)N[C@@H](CC(=O)O)C(=O)N[C@@H](CCCCN)C(=O)N[C@@H](CCC(N)=O)C(=O)N[C@@H](C)C(=O)N[C@@H](C)C(=O)NC(C)(C)C(=O)N[C@@H](CCC(=O)O)C(=O)N[C@@H](Cc1ccccc1)C(=O)N[C@H](C(=O)N[C@@H](CC(N)=O)C(=O)N[C@@H](Cc1c[nH]c2ccccc12)C(=O)N[C@@H](CC(C)C)C(=O)N[C@@H](CC(C)C)C(=O)N[C@@H](C)C(=O)NCC(N)=O)C(C)C)[C@@H](C)CC
Take B7: in the experiment with GIP receptor [2], the “EC50” value came to 0.0133 nM.

B8: mt-284 (peptide)
peptide: Y[Aib]EGTFTSDK(Stearoyl)SIYLDKQAA[Aib]EFVNWLLAG-NH2
modifications: N-terminus assumed
SMILES: CCCCCCCCCCCCCCCCCC(=O)NCCCC[C@H](NC(=O)[C@H](CC(=O)O)NC(=O)[C@H](CO)NC(=O)[C@@H](NC(=O)[C@H](Cc1ccccc1)NC(=O)[C@@H](NC(=O)CNC(=O)[C@H](CCC(=O)O)NC(=O)C(C)(C)NC(=O)[C@@H](N)Cc1ccc(O)cc1)[C@@H](C)O)[C@@H](C)O)C(=O)N[C@@H](CO)C(=O)N[C@H](C(=O)N[C@@H](Cc1ccc(O)cc1)C(=O)N[C@@H](CC(C)C)C(=O)N[C@@H](CC(=O)O)C(=O)N[C@@H](CCCCN)C(=O)N[C@@H](CCC(N)=O)C(=O)N[C@@H](C)C(=O)N[C@@H](C)C(=O)NC(C)(C)C(=O)N[C@@H](CCC(=O)O)C(=O)N[C@@H](Cc1ccccc1)C(=O)N[C@H](C(=O)N[C@@H](CC(N)=O)C(=O)N[C@@H](Cc1c[nH]c2ccccc12)C(=O)N[C@@H](CC(C)C)C(=O)N[C@@H](CC(C)C)C(=O)N[C@@H](C)C(=O)NCC(N)=O)C(C)C)[C@@H](C)CC
With B8, the “EC50” value with GIP receptor [2] stood at 0.0186 nM.
